Data on 10 molecules can be found in US20200040103A1.

Positions count from the first letter of the chain named.

B1: 9B6 (antibody, V domains shown)
VH: QSVKESEGGLFKPTDNLTLTCTVSGFSLSNYGVTWVRQAPGNGLEYIGFIGSGGSAYYASWAKSRSTITRNTNLNTVTLKMTSLTAADTATYFCARDDVGGGKSLDIWGPGTLVTVSS
VL: NIVMTQTPASVEVAVGGTVVIKCQASQNIGDYLSWYQQKPGQRPKLLIYSASTLASGVPSRFKGSGSGTQFTLTISDLECADAATYYCHQDYTSNDVENTFGGGTEVVVK
B2: 2B11 (antibody, V domains shown)
VH: QSVKESEGGLFKPTDTLTLTCTVSGFSLINYGVSWVRQAPGKGLEWIGYIGSAGSTYYATWAKSRATITRNTNLNTVTLKMTSLTAADTATYFCARAAYSAGSADAEDIWGPGTLVTVSS
VL: AYYMTQTPASVEAAVGGTVTIKCQASQSISNYVAWYQQKPGQPPKLLIYRASTLASGVSSRFSGSGSGTEFTLTISDLECADAATYYCHQGYSSSNVDNIFGGGTEVVVK
B3: 8F5 (antibody, V domains shown)
VH: QSVKESEGGLFKPTDTLTLTCTVSGFSLSSYPISWVRQAPGNGLEWIGYITSEYGVAYYATWAESRSTITRNTNLNTVTLKMTSLTAADTATYFCVRENPTYGYAYDAWGPGTLVTVSS
VL: AYDLTQTPASVEAAVGGTVTINCQASESIGNELSWYQQKSGQPPKLLIYQASTLASGVPSRFKGSGSGTDFTLTISDLECADAATYYCAQGFSSSGVENVFGGGTEVVVK
B4: 10C5 (antibody, V domains shown)
VH: QSLEESGGGLVKPTDTLTLTCTVSGFSLSSYGVTWVRQAPGRGLEWIGYITSNYGVSYYASWAKSRSTITRNTNLNTVTLKMTSLTAADTATYFCARENPDYGYAYDAWGPGTLVTVSV
VL: B3 VL with L4M, V11L, G30S, S40P, K45D, Q50Y, D70E, S93G
B5: 2-3F4 (antibody, V domains shown)
VH: QSVEESRGGLIKPTDTLTLTCTASGFSLSNYGVSWVRQAPGNGLEYIGFIGYGGSTYYASWAKSRSTITRNTNLNTVTLQMTSLTAADTATYFCARLCGVDCADALDSWGPGTLVTVSS
VL: AYYMTQTPASVEVAVGGTVTIKCQASEDIGSYCSWYQQKPGQPPKLLIYDASDLASGVPSRFKGSGSGTDFTLTISGVQCDDAATYYCQQDYTGNNVDNTFGGGSEVVVK
B6: hu3-3F5.L5H19 (antibody, V domains shown)
VH: EVQLLESGGGLVQPGGSLRLSCAVSGFSLNDYGVSWVRQAPGKGLEWVGAIGSSGVAWYANFAKGRFTISRDNSKNTLYLQMNSLRAEDTAVYYCARDRDYGYRADDATSGMDLWGRGTLVTVSS
VL: AIRMTQSPSSFSASTGDRVTITCQASESIGNALAWYQQKPGKAPKLLIYDASDLASGVPSRFSGSGSGTDFTLTISSLQPEDFATYYCQQGDSHNNVDNIFGGGTKVEIK
B7: hu3-3F5.L5H25 (antibody, human IgG1, V domains shown)
VH: B6 VH with V24A, N73T, L78V
VL: B6 VL
B8: hu10C5.L5H28 (antibody, V domains shown)
VH: EVQLVESGGGLVQPGGSLRLSCAASGFSLSSYGVTWVRQAPGKGLEWIGYITSNYGVSYYASWAKSRSTISRDTSKNTVYLQMGSLRAEDMAVYYCARENPDYGYAYDAWGQGTTVTVSS
VL: AIRMTQSPSSFSASTGDRVTITCQASESISNELSWYQQKPGKAPKLLIYYASTLASGVPSRFSGSGSGTDFTLTISSLQPEDFATYYCAQGFGSSGVENVFGGGTKVEIK
B9: hu9H5.L4H14 (antibody, V domains shown)
VH: EVQLVESGGGLIQPGGSLRLSCAASGFSLSSYGVSWVRQAPGKGLEYVGFIGSGGFAYYASWAKSRFTISRDNSKNTLYLQMNSLRAEDTAVYYCARDDVGGGKSLDIWGQGTLVTVSS
VL: DIQMTQSPSSLSASVGDRVTITCQASQSISSYLSWYQQKPGKAPKLLIYSASTLASGVPSRFSGSGSGTDFTLTISSLQPEDFATYYCHQDYTSSNVDNTFGGGTKVEIK
B10: 8G10 (antibody, V domains shown)
VH: QSLEESGGDLVKPEGSLTLTCTASGFSFSTSYWICWVRQAPGKGLEWIACVYGLDVNIYYASWTEGRFTISKTSSTTVTLQVTSLTAADTATYFCARGGGSADFGFDLWGPGTLVTVSS
VL: DVVMTQTPASVSEPVGGTVTIKCQASENIYSLLAWYQQKPGQPPKVLIYDASDLASGVPSRFKGSGSGTQFTLTISDLECADAATYYCQATAYGSSGNAFGGGTEVVVK

Chain of recombinant human KLK5 (human) (Q9Y337 67-293): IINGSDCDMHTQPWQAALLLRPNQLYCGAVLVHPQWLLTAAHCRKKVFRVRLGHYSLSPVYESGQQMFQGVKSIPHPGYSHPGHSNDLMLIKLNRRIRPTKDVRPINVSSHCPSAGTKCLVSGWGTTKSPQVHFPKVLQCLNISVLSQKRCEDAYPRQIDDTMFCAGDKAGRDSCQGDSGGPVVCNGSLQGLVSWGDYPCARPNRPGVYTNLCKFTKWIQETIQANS

One assay has as its target recombinant human KLK5 (human) (UniProt Q9Y337). Kind of assay: Kiapp assay curve, 0.125 nM KLK5, Z-VPR-pNA.
Turning to B1, the IC50 (read off the curve) turned out to be 0.1 nM.

A further assay shares this target. Kind of assay: Kiapp, KLK5 0.5-0.0625 nM, Z-VPR-pNA.
Consider B2, for which the Ki was determined as 6.35 nM.
B3: the Ki turned out to be 1.91 nM.
As for B4, the Ki turned out to be 0.15 nM.
On the same count and under the same terms, the result for B5 reads 1.14 nM; that for B1, 0.185 nM.

For a further assay the target is unchanged. Nature of the assay: pro-KLK7 coupled assay, 5 nM KLK5, 125 nM pro-KLK7, suc-LLVY-AMC.
As for B3, the IC50 (read off the curve) was 0.8 nM.
For the molecule B5, the IC50 (read off the curve) is 1 nM.
Still for that read-out and setting: the result for B1 reads 1 nM.

Another assay has the same target. Kind of assay: pro-KLK1 LC/MS assay, 0.5 nM KLK5.
One may read the IC50 as the midpoint of a concentration-inhibition curve. Consider B2, for which the IC50 amounted to 0.48 nM.
Turning to B3, the IC50 is 0.16 nM.
Take B4: the IC50 was 0.08 nM.
On the same count and under the same terms, under B5 stands 0.09 nM.
Consider B1, for which the IC50 is 0.12 nM.

For a further assay the target is unchanged. Kind of assay: Kiapp as the y-intercept of the line of IC50 (nM) versus KLK5 (nM), Z-VPR-pNA.
Consider B2, for which the Ki turned out to be 6.36 nM.
On the same count and under the same terms, under B3 stands 1.85 nM; under B4, 0.0412 nM; under B5, 0.939 nM.
Same read-out and setting: the result for B1 reads 0.165 nM.

For another assay the target is unchanged. Nature of the assay: KLK5 direct activity assay, 5 nM KLK5, Boc-VPR-AMC.
For B2, the IC50 (read off the curve) is 1 to 2 nM.
Same read-out and setting: the result for B3 reads 1 nM; that for B4, 1 nM.
Consider B5, for which the IC50 (read off the curve) amounted to 1 nM.
The same measure, in the same setting: under B1 stands 1 to 2 nM.

The target is the same in another assay. Nature of the assay: direct activity assay, 5 nM KLK5, Boc-VPR-AMC.
In the case of B2, the IC50 stood at 1.29 nM.
With B3, the IC50 is 1.15 nM.
Still for that read-out and setting: under B4 stands 0.98 nM.
Same read-out and setting: under B5 stands 1.02 nM; under B1, 1.17 nM.

The target is the same in another assay. Kind of assay: pro-KLK1 coupled assay, 0.5 nM KLK5.
On to B2, for which the IC50 came to 0.17 nM.
Turning to B3, the IC50 amounted to 0.149 nM.
The same measure, in the same setting: the result for B4 reads 0.111 nM; that for B5, 0.129 nM.
For the molecule B1, the IC50 came out at 0.074 nM.

The next assay has the same target. Kind of assay: pro-KLK1 LC/MS assay, 0.5 nM KLK5, 300 nM pro-KLK1; box column 2 of 3; no unit printed, nM per text.
For B2, the IC50 was 0.584 nM.
In the case of B3, the IC50 was found to be 0.16 nM.
With B4, the IC50 was 0.123 nM.
Same read-out and setting: under B5 stands 0.173 nM.
Still for that read-out and setting: under B1 stands 0.202 nM.

Another assay shares this target. Kind of assay: pro-KLK7 LC/MS assay, 5 nM KLK5.
Regarding B2, the IC50 was determined as 1.72 nM.
On the same count and under the same terms, under B3 stands 1.31 nM; under B4, 0.31 nM.
In the case of B5, the IC50 was determined as 0.38 nM.
With B1, the IC50 came to 1.42 nM.

The target is the same in the next assay. Kind of assay: SPR BIAcore T200, antibody captured by anti-human Fc, human KLK5 as analyte, 37 C. In general terms: In SPR one partner is held on a chip, and binding of the other changes the refractive index at the surface.
Usually Kd stands for the free concentration of one partner at which half of the binding sites on the other are occupied at equilibrium, for simple one-to-one binding. Broadly, the koff is a measure of how fast the partners let go of each other. For orientation: kon means a measure of how fast the partners come together. Take B6: the Kd amounted to 0.00414 nM, the koff amounted to 0.000201 s⁻¹ and the kon amounted to 4.84e+07 M⁻¹ s⁻¹.
The matching figures for B7: 0.00914 nM, 0.000235 s⁻¹ and 2.57e+07 M⁻¹ s⁻¹.
For the molecule B8, the Kd amounted to 0.057 nM, the koff came out at 0.00108 s⁻¹ and the kon worked out at 1.9e+07 M⁻¹ s⁻¹.
The matching figures for B9: 0.694 nM, 0.000562 s⁻¹ and 810000 M⁻¹ s⁻¹.
The matching figures for B4: 0.0165 nM, 0.000292 s⁻¹ and 1.78e+07 M⁻¹ s⁻¹.

For another assay the target is unchanged. Kind of assay: pro-KLK1 LC/MS assay, 0.5 nM KLK5, 300 nM pro-KLK1; box column 3 of 3; no unit printed, nM per text.
Consider B3, for which the IC50 turned out to be 0.241 nM.
On the same count and under the same terms, the result for B4 reads 0.0795 nM.
Take B5: the IC50 worked out at 0.0279 nM.
Same read-out and setting: the result for B1 reads 0.0879 nM.

Another assay has the same target. Kind of assay: Kiapp assay curve, 0.250 nM KLK5, Z-VPR-pNA.
As to B1, the IC50 (read off the curve) stood at 0.1 nM.

The target is the same in a further assay. Kind of assay: pro-KLK1 coupled assay, 0.5 nM KLK5, 31.25 nM pro-KLK1, PFR-AMC.
Turning to B2, the IC50 (read off the curve) was found to be 0.2 nM.
Still for that read-out and setting: under B3 stands 0.1 to 0.2 nM.
With B4, the IC50 (read off the curve) stood at 0.1 nM.
The same measure, in the same setting: the result for B5 reads 0.1 nM.

Another assay shares this target. Nature of the assay: pro-KLK7 LC/MS assay, 5 nM KLK5, 15 nM pro-KLK7, nM.
On to B2, for which the IC50 was 1.72 nM.
As to B3, the IC50 was 1.31 nM.
With B4, the IC50 was 0.311 nM.
On the same count and under the same terms, under B5 stands 0.384 nM; under B1, 1.42 nM.

Another assay shares this target. Nature of the assay: Kiapp assay curve, 0.063 nM KLK5, Z-VPR-pNA.
On to B1, for which the IC50 (read off the curve) came out at 0.1 nM.

A further assay shares this target. Nature of the assay: pro-KLK1 LC/MS assay, 0.5 nM KLK5, 300 nM pro-KLK1; box column 1 of 3; no unit printed, nM per text.
As to B2, the half-maximal inhibitory concentration (IC50) came to 0.369 nM.
Take B3: the IC50 worked out at 0.069 nM.
On to B4, for which the IC50 was 0.0399 nM.
On the same count and under the same terms, the result for B5 reads 0.054 nM; that for B1, 0.0659 nM.

A further assay shares this target. Nature of the assay: pro-KLK7 coupled assay, 5 nM KLK5.
As to B2, the IC50 was 0.86 nM.
Still for that read-out and setting: under B3 stands 0.76 nM.
Take B4: the half-inhibitory concentration (IC50) amounted to 0.58 nM.
Regarding B5, the IC50 came out at 1.1 nM.
Take B1: the IC50 was 0.95 nM.

For the next assay the target is unchanged. Nature of the assay: array SPR imaging (IBIS MX96), antibody amine-coupled, human KLK5 injected 0-300 nM, 25 C.
With B2, the dissociation rate constant (koff) was 0.000574 s⁻¹.
Same read-out and setting: under B10 stands 0.000245 s⁻¹; under B3, 0.000316 s⁻¹; under B4, 0.000126 s⁻¹.
As to B5, the koff stood at 0.000184 s⁻¹.
The same measure, in the same setting: the result for B1 reads 0.000178 s⁻¹.

The target is the same in another assay. Kind of assay: Kiapp assay curve, 0.500 nM KLK5, Z-VPR-pNA.
Regarding B1, the IC50 (read off the curve) was 0.2 nM.
